{"source": "patent US20250011363A1", "about": "“OPTIMIZED SHORTENED PEPTIDE THAT BINDS TO ACETYLCHOLINE RECEPTOR, AND USE THEREOF” (SKINMED CO., LTD., priority 2021, published 2025)"}
{"target": "acetylcholine receptor (Homo sapiens, UniProt P02708)", "sequence (P02708 21-457)": "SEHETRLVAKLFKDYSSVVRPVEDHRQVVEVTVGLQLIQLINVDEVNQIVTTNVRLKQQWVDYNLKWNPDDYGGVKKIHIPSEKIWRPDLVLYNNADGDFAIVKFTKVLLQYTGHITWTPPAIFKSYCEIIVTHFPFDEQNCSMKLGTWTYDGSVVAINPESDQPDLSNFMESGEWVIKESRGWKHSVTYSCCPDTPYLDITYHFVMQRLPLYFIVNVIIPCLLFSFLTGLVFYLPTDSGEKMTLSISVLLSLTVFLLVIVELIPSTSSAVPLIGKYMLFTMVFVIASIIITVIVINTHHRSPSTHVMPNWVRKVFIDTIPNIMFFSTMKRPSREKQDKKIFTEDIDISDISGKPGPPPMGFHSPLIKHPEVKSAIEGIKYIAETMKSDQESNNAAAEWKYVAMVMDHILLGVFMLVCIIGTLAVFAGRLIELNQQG", "assay": "SPR binding affinity (RU) of optimized 5mer/6mer/7mer peptides, Examples 6-7", "details": "SPR, Resonance Units; 5mer Bottom sequence (bottom combinations); peptides tested at 10 μM", "method": "(§1) Based on the frequencies of occurrence of the top 7 amino acids from Table 7 in Example 5, 600 peptides comprising these amino acids (top combinations) and those comprising the 13 less frequently occurring amino acids (bottom combinations) were synthesized for each series of 5mer, 6mer-1, and 6mer-2. The binding affinity of each sequence for the acetylcholine receptor was measured using Surface Plasmon Resonance (SPR) analysis method. The peptides were tested at a concentration of 10 μM. Additionally, the average binding affinities of the top and bottom combinations in each series are depicted in FIGS. 5-7.\n(§2) Representative peptides identified in Example 6, two in each library, including 5mers (73, 311) and 6mers-1 (43, 210) and 6mers-2 (136, 233), were compared with the pre-optimized 6mer, 5mer-ND, and Synake.", "units": {"Binding affinity": "Ru"}}
{"substance": "5mer-601 (RFCFK)", "Binding affinity": 13}
{"substance": "5mer-602 (KMSVR)", "Binding affinity": 12}
{"substance": "5mer-603 (RKEPK)", "Binding affinity": 27}
{"substance": "5mer-604 (RKEGK)", "Binding affinity": 13}
{"substance": "5mer-605 (RECFK)", "Binding affinity": 22}
{"substance": "5mer-606 (RIHWK)", "Binding affinity": 25}
{"substance": "5mer-607 (RIEER)", "Binding affinity": 25}
{"substance": "5mer-608 (RDSER)", "Binding affinity": 20}
{"substance": "5mer-609 (RKTMK)", "Binding affinity": 32}
{"substance": "5mer-610 (KCDDK)", "Binding affinity": 16}
{"substance": "5mer-611 (KDHIR)", "Binding affinity": 33}
{"substance": "5mer-612 (KCTDK)", "Binding affinity": 23}
{"substance": "5mer-613 (RAEFR)", "Binding affinity": 20}
{"substance": "5mer-614 (RNTWK)", "Binding affinity": 29}
{"substance": "5mer-615 (KCCNR)", "Binding affinity": 20}
{"substance": "5mer-616 (KFCPR)", "Binding affinity": 15}
{"substance": "5mer-617 (RYCAK)", "Binding affinity": 28}
{"substance": "5mer-618 (RMSWK)", "Binding affinity": 19}
{"substance": "5mer-619 (KCSFK)", "Binding affinity": 19}
{"substance": "5mer-620 (RCMHK)", "Binding affinity": 23}
{"substance": "5mer-621 (KKSMK)", "Binding affinity": 13}
{"substance": "5mer-622 (RKPKR)", "Binding affinity": 22}
{"substance": "5mer-623 (KNTGR)", "Binding affinity": 19}
{"substance": "5mer-624 (KEHER)", "Binding affinity": 22}
{"substance": "5mer-625 (KMCDR)", "Binding affinity": 33}
{"substance": "5mer-626 (KICMR)", "Binding affinity": 12}
{"substance": "5mer-627 (KMSPK)", "Binding affinity": 30}
{"substance": "5mer-628 (RYMDR)", "Binding affinity": 19}
{"substance": "5mer-629 (RPTNK)", "Binding affinity": 32}
{"substance": "5mer-630 (RITFR)", "Binding affinity": 30}
{"substance": "5mer-631 (RPANR)", "Binding affinity": 17}
{"substance": "5mer-632 (RFSHR)", "Binding affinity": 33}
{"substance": "5mer-633 (RAAKR)", "Binding affinity": 20}
{"substance": "5mer-634 (RMMMR)", "Binding affinity": 26}
{"substance": "5mer-635 (RMNGR)", "Binding affinity": 21}
{"substance": "5mer-636 (KDKGR)", "Binding affinity": 11}
{"substance": "5mer-637 (KCDHK)", "Binding affinity": 28}
{"substance": "5mer-638 (KHCIR)", "Binding affinity": 33}
{"substance": "5mer-639 (KETWK)", "Binding affinity": 13}
{"substance": "5mer-640 (KNPHK)", "Binding affinity": 15}
{"substance": "5mer-641 (RITWK)", "Binding affinity": 22}
{"substance": "5mer-642 (RAWDR)", "Binding affinity": 22}
{"substance": "5mer-643 (KHDGR)", "Binding affinity": 28}
{"substance": "5mer-644 (RMKWK)", "Binding affinity": 24}
{"substance": "5mer-645 (RHKDK)", "Binding affinity": 20}
{"substance": "5mer-646 (KDTKR)", "Binding affinity": 16}
{"substance": "5mer-647 (KHTVK)", "Binding affinity": 29}
{"substance": "5mer-648 (KNKKR)", "Binding affinity": 15}
{"substance": "5mer-649 (RYSFK)", "Binding affinity": 20}
{"substance": "5mer-650 (RPEDK)", "Binding affinity": 22}
{"substance": "5mer-651 (RFTVR)", "Binding affinity": 11}
{"substance": "5mer-652 (RCAAR)", "Binding affinity": 23}
{"substance": "5mer-653 (KTTWK)", "Binding affinity": 16}
{"substance": "5mer-654 (KEWNR)", "Binding affinity": 27}
{"substance": "5mer-655 (RKCIR)", "Binding affinity": 15}
{"substance": "5mer-656 (KATGR)", "Binding affinity": 13}
{"substance": "5mer-657 (KDNDR)", "Binding affinity": 22}
{"substance": "5mer-658 (KKWGR)", "Binding affinity": 31}
{"substance": "5mer-659 (KIHEK)", "Binding affinity": 22}
{"substance": "5mer-660 (KFDVK)", "Binding affinity": 11}
{"substance": "5mer-661 (RCNMK)", "Binding affinity": 30}
{"substance": "5mer-662 (KIEEK)", "Binding affinity": 28}
{"substance": "5mer-663 (RATPR)", "Binding affinity": 31}
{"substance": "5mer-664 (KPTWR)", "Binding affinity": 17}
{"substance": "5mer-665 (KTWEK)", "Binding affinity": 26}
{"substance": "5mer-666 (RHDWR)", "Binding affinity": 18}
{"substance": "5mer-667 (RDCHR)", "Binding affinity": 16}
{"substance": "5mer-668 (RPHAK)", "Binding affinity": 27}
{"substance": "5mer-669 (RNPER)", "Binding affinity": 24}
{"substance": "5mer-670 (KPCVK)", "Binding affinity": 23}
{"substance": "5mer-671 (KMNAK)", "Binding affinity": 21}
{"substance": "5mer-672 (KHAPK)", "Binding affinity": 12}
{"substance": "5mer-673 (RISPR)", "Binding affinity": 14}
{"substance": "5mer-674 (KETHR)", "Binding affinity": 22}
{"substance": "5mer-675 (RKPGR)", "Binding affinity": 31}
{"substance": "5mer-676 (RTMFR)", "Binding affinity": 18}
{"substance": "5mer-677 (RCEMR)", "Binding affinity": 15}
{"substance": "5mer-678 (KYMGR)", "Binding affinity": 23}
{"substance": "5mer-679 (KKTVK)", "Binding affinity": 21}
{"substance": "5mer-680 (RFTER)", "Binding affinity": 21}
{"substance": "5mer-681 (KDTMR)", "Binding affinity": 18}
{"substance": "5mer-682 (KPNVK)", "Binding affinity": 31}
{"substance": "5mer-683 (KYPDK)", "Binding affinity": 32}
{"substance": "5mer-684 (KCAER)", "Binding affinity": 27}
{"substance": "5mer-685 (RNDIK)", "Binding affinity": 21}
{"substance": "5mer-686 (RFNIR)", "Binding affinity": 18}
{"substance": "5mer-687 (RMEIR)", "Binding affinity": 22}
{"substance": "5mer-688 (RPHFK)", "Binding affinity": 31}
{"substance": "5mer-689 (RFSDK)", "Binding affinity": 20}
{"substance": "5mer-690 (RAEIK)", "Binding affinity": 12}
{"substance": "5mer-691 (KEWEK)", "Binding affinity": 16}
{"substance": "5mer-692 (RDHWK)", "Binding affinity": 15}
{"substance": "5mer-693 (RPSKK)", "Binding affinity": 17}
{"substance": "5mer-694 (KNNAR)", "Binding affinity": 24}
{"substance": "5mer-695 (KKPDR)", "Binding affinity": 26}
{"substance": "5mer-696 (RCEHR)", "Binding affinity": 11}
{"substance": "5mer-697 (KASKK)", "Binding affinity": 25}
{"substance": "5mer-698 (KFDWK)", "Binding affinity": 12}
{"substance": "5mer-699 (KKNER)", "Binding affinity": 12}
{"substance": "5mer-700 (RAWER)", "Binding affinity": 17}
{"substance": "5mer-701 (RNHNK)", "Binding affinity": 22}
{"substance": "5mer-702 (KISHK)", "Binding affinity": 30}
{"substance": "5mer-703 (KPNWR)", "Binding affinity": 22}
{"substance": "5mer-704 (RFMGK)", "Binding affinity": 28}
{"substance": "5mer-705 (RHAKK)", "Binding affinity": 15}
{"substance": "5mer-706 (RKMAK)", "Binding affinity": 27}
{"substance": "5mer-707 (KIEAK)", "Binding affinity": 32}
{"target": "acetylcholine receptor (Homo sapiens, UniProt P02708)", "assay": "SPR binding affinity (RU) of optimized 5mer/6mer/7mer peptides, Examples 6-7", "details": "SPR, peptides tested at 10 μM; 5mer Top sequence (top combinations)", "method": "as §1, §2", "units": {"Binding affinity": "Ru"}}
{"substance": "5mer-541 (KVFLK)", "Binding affinity": 80}
{"substance": "5mer-542 (KRYTR)", "Binding affinity": 85}
{"substance": "5mer-543 (RLRLK)", "Binding affinity": 65}
{"substance": "5mer-544 (RLQLR)", "Binding affinity": 63}
{"substance": "5mer-545 (KGQYR)", "Binding affinity": 80}
{"substance": "5mer-546 (KVVLK)", "Binding affinity": 65}
{"substance": "5mer-547 (KQVTK)", "Binding affinity": 77}
{"substance": "5mer-548 (KWLCK)", "Binding affinity": 60}
{"substance": "5mer-549 (KWITK)", "Binding affinity": 78}
{"substance": "5mer-550 (RQQSR)", "Binding affinity": 83}
{"substance": "5mer-551 (RWQYR)", "Binding affinity": 59}
{"substance": "5mer-552 (RLYSR)", "Binding affinity": 63}
{"substance": "5mer-553 (KLLSR)", "Binding affinity": 72}
{"substance": "5mer-554 (RLLSK)", "Binding affinity": 65}
{"substance": "5mer-555 (KVQCK)", "Binding affinity": 71}
{"substance": "5mer-556 (RVIYK)", "Binding affinity": 52}
{"substance": "5mer-557 (KQRRK)", "Binding affinity": 87}
{"substance": "5mer-558 (RWRYK)", "Binding affinity": 84}
{"substance": "5mer-559 (KQQLK)", "Binding affinity": 81}
{"substance": "5mer-560 (KWYQR)", "Binding affinity": 59}
{"substance": "5mer-561 (KWRCK)", "Binding affinity": 72}
{"substance": "5mer-562 (RVRQR)", "Binding affinity": 70}
{"substance": "5mer-563 (RLVLK)", "Binding affinity": 60}
{"substance": "5mer-564 (RSRYR)", "Binding affinity": 74}
{"substance": "5mer-565 (RLVSK)", "Binding affinity": 77}
{"substance": "5mer-566 (KQLYK)", "Binding affinity": 78}
{"substance": "5mer-567 (RRYCK)", "Binding affinity": 63}
{"substance": "5mer-568 (KQITR)", "Binding affinity": 64}
{"substance": "5mer-569 (RQQRK)", "Binding affinity": 79}
{"substance": "5mer-570 (KLVRR)", "Binding affinity": 56}
{"substance": "5mer-571 (RRLTK)", "Binding affinity": 51}
{"substance": "5mer-572 (KLRTK)", "Binding affinity": 58}
{"substance": "5mer-573 (RSIYR)", "Binding affinity": 84}
{"substance": "5mer-574 (KGFTR)", "Binding affinity": 59}
{"substance": "5mer-575 (KGFYR)", "Binding affinity": 69}
{"substance": "5mer-576 (RLFRK)", "Binding affinity": 62}
{"substance": "5mer-577 (KLVTK)", "Binding affinity": 77}
{"substance": "5mer-578 (KSVLR)", "Binding affinity": 65}
{"substance": "5mer-579 (RSLYK)", "Binding affinity": 53}
{"substance": "5mer-580 (RGYTR)", "Binding affinity": 70}
{"substance": "5mer-581 (KGVLR)", "Binding affinity": 65}
{"substance": "5mer-582 (RGICK)", "Binding affinity": 82}
{"substance": "5mer-583 (KVVYR)", "Binding affinity": 75}
{"substance": "5mer-584 (KQIQK)", "Binding affinity": 76}
{"substance": "5mer-585 (RSVSK)", "Binding affinity": 74}
{"substance": "5mer-586 (KGRRR)", "Binding affinity": 78}
{"substance": "5mer-587 (RVITR)", "Binding affinity": 66}
{"substance": "5mer-588 (RSFTR)", "Binding affinity": 60}
{"substance": "5mer-589 (KGLCR)", "Binding affinity": 58}
{"substance": "5mer-590 (KQYTK)", "Binding affinity": 81}
{"substance": "5mer-591 (RVYTK)", "Binding affinity": 61}
{"substance": "5mer-592 (RWLCR)", "Binding affinity": 56}
{"substance": "5mer-593 (KQYLK)", "Binding affinity": 77}
{"substance": "5mer-594 (KQYSR)", "Binding affinity": 50}
{"substance": "5mer-595 (KWQQR)", "Binding affinity": 58}
{"substance": "5mer-596 (KLQQR)", "Binding affinity": 56}
{"substance": "5mer-597 (KLVSR)", "Binding affinity": 68}
{"substance": "5mer-598 (RVRSK)", "Binding affinity": 84}
{"substance": "5mer-599 (KWVSR)", "Binding affinity": 61}
{"substance": "5mer-600 (KLYSK)", "Binding affinity": 64}
